Measurements published in the domain aggregation screens of Martell et al. (2025).

Test: soluble fraction after stress (log2 fold change); higher = more stays soluble; pooled small domains, quantitative proteomics
Conditions: stress: pH 4
How it was run: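 Aggregation propensity here comes from the fold change in the soluble amount of each small protein domain after acid stress, measured in pooled custom libraries by high-throughput quantitative proteomics. The acid stress was pH 4. On the log2 scale, higher values mean more of the domain stayed soluble.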

“HMIKRDLAFSEFIAEVKAGQVREVTIKGNSISGNLNDGREFNTYAPNDPNLVKTLTDQGVLIRAIPLE” and “HMLDPKVFVGKAGINEGIAKLLLQAFDKADLVKVRFTAERDVMETQMQELARLTGSEVIGNVGRTATF” are within 0.2 log units of each other in “soluble fraction (log2)” value: 0.227 for the first, 0.168 for the second.

“HMADLIIMSSDATEKQVDKVINKIKNMGFNVNISKGTEKTIIGIIGDTRGISDEVFKIMPGVIEVISILRD” and “HMVQIIQLQGTDKRLYELVAPLVMNPEILKQNYNYPFRTSEDFVWFVAVDKKKVIGFIPVEEKKKEYVI” are within 0.2 log units of each other in “soluble fraction (log2)” value: -0.38 for the first, -0.275 for the second.

Going from “HMAVKLELYRVFKEVAETGNISAAAKNLYISQSAVSQSIKQLETALQARLFARSPRGVTLTGEGQMLYQYV” to “HMENMETSDIVARYSNMPGGIIEAFHEIVDRHGFLSQEAIIEAARGFGISVAEAYGVATFYSMFS”, the “soluble fraction (log2)” value rises from -0.652 to -0.42.

Going from “HMKTTKLEELDMQKEFILKNGKYGFGVYIGGKYIGLTDIGTVNSFKDSLQLPVVSLSDIDFKTFAEKF” to “HMQKDAYVPDIISKLKSSRMIVVEGTIYPLLTRLKNTGLLSYRWEESLQGPPRKYYSITEQG”, the “soluble fraction (log2)” value rises from -1.34 to -0.0816.

First: HMNDRLAGMEGQRGEAATNFDQGEGKVKVGDTVWLAKQSDSTVIVEGDQIVVTGSENGLLKVRL
Second: HMQRQGTVATQQTPLNIRSQPSLSAQVIGQAPKGATVAILGESGDWYQIRYQNITGYSSKQYI
The “soluble fraction (log2)” value of the first is lower: -0.453 for the first, ≥ 0.43 for the second.

Compared with “HMVYLPGEEIPLKIIQEGKESGQGVGYLEDGTMVVVENGRRYLNQEVLVQVTKILQTNAGRLIFAVP”, “HMNDVGKVLNQLGERDRMILLLTYWDELPLKEAARILEVSENNAKIILFRARSRFASLWSAGS” is lower in “soluble fraction (log2)” value: 0.11 for the first, -0.794 for the second.

First: HMNIVVSSIDSNSFEIVNKETGEQAVISYDKETKKGFVLINGVKKEFFQDGNKVYYDGYVIAE
Second: HMEPEVSNTYEKVLGMHHFSSTRSHQLHDLVRQANALELSLGEIESIAQSAKDGAQVISDIKHWMEPNRQ
The “soluble fraction (log2)” value of the first is lower: -0.466 for the first, -0.185 for the second.

“HMQVDENNINKRIDKYLSENTEYSRSTIQKMIDNGNITVNSKPTKSSYKLELNDIITIDNNFKE” and “HMFTKSNLEKLSNSELILKAIDSGNYSKIEFGGSEALNPDVPSYKKDLKNREELIEILSEMGM” are within 0.2 log units of each other in “soluble fraction (log2)” value: -0.0731 for the first, -0.0908 for the second.

“HMLETLVYPNPTTDKILLSSPVDYHLFSLKGELVLEGRGSSIEVSQLSKGVYFLNTKTQTFKIIK” and “HMSEEVDVPDLVGMQLEEAEKSLEPLGLKLKIAKEIPNSEFEKGKIVDQKTKAGEKVKTGYTIEVTVSSG” are within 0.2 log units of each other in “soluble fraction (log2)” value: -0.156 for the first, -0.0107 for the second.

Going from “HMSDDAVVRMRVPEDALGLSLRETDFRQRFGVYVLAIETRDGKLLAPPDPQRPLGKDDVLVVIQKR” to “HMIKDSKAAYKILGVDENATNEEIKKAYRQLVINHHPDKVSHLGEDIQRAANEKLKQINAAYDEIKKQRGF”, the “soluble fraction (log2)” value rises from -0.279 to 0.171.

“HMKNLTERQQRIIALISENPQTTRAEIAGAIGVATKTIERELTTLSNIVYYVGPKKGGHWEIIK” and “HMAHTGGNTLTREKAVSVRSASDALLFEIHWNETPREDILSTREEKVDGKTYSIITIRTGKGREDHYYLLS” are within 0.2 log units of each other in “soluble fraction (log2)” value: 0.333 for the first, 0.295 for the second.

“HMDAEKHIVTPEAGLRLDRALTDALPNLSRSRVKQLINEGLVTTENKTITAPSYRVKYGDSFEISIPPPT” and “HMEYYIMPVANLHKVVVDGKDMSNLISNNAIAVKANVIDEGQIQIKPGEIIITTPAGVSPEEAVRSP” are within 0.2 log units of each other in “soluble fraction (log2)” value: -0.134 for the first, -0.135 for the second.

“HMGEVYPSDIVEKMKQANLHILEGTLYPLLTRLKNAGLLNYRWVESVTGPPRKYFVMTEEGKAAF” and “HMNRMKLLREQHNLSQTDLAKILNISRQSYNFYENEKRDPDTTMLIRIADFFNVSLDYLLGRTNN” are within 0.2 log units of each other in “soluble fraction (log2)” value: 0.0276 for the first, -0.0385 for the second.

Going from “HMSKIVPVAYSQFLKDVKNGNVSQVEIRGNNIKGINNNGSSFSTYAPNDLSLIDKLEKSNVEIIVMPLE” to “HMISQATMEKMGLTNRERQLVDFIVRGASNQEISEKMFISINTVKIHVSNIFRKAGVRSRTELMDKYP”, the “soluble fraction (log2)” value falls from -0.232 to -0.693.

First: HMHVLAVDEALHKLTELNELHAKIVEMRFFSGMTVQEVADELGVSKRKIESEWTMIKAWLRKELN
Second: HMLAGKTYEVQTESGGKWTLVASYNVKSQAIQQAQALLESHKYSGVKVIAESDRKGEEVIFNEQSEVT
The “soluble fraction (log2)” value of the first is lower: -0.916 for the first, 0.104 for the second.

“HMTRVANIPYSEFLKLVETDKINDVSMVGKTISGHLDDGTKFSTYTPPNDPNLIDKLSKHNVIIKAGPE” and “HMDPEIADAVNTIKKYLESHYSEVITRKKIEELVHLNQDHINREFKKQTGYTLMEYVQHYRILMAKKMLRV” are within 0.2 log units of each other in “soluble fraction (log2)” value: 0.0499 for the first, -0.1 for the second.

First: HMIVVMKTSASERDLQEVIARIEQFGFATRSIVGSERATVSVLGAPLPDSLQEALERMPGVEEVVRITK
Second: HMSSIDLTARSGRAALKHRLSLLGYEFSKIELETLYVRFIELADEKKLLHDEDLIELVKEKN
The “soluble fraction (log2)” value of the first is higher: -0.0559 for the first, -0.655 for the second.

“HMELLSGTVEKVLTSGVLVKLPGGAIGFIPNSEMGTPRGTNHGKMFPAGTPLQVMVVEVNQDRGRITLSR” and “HMFTEIMAERNALIQAIQQNLPPQHIQSILSKKNKFRLEDLTNEELRDVWQWILNQRQAQQHQQQ” are within 0.2 log units of each other in “soluble fraction (log2)” value: -0.389 for the first, -0.373 for the second.

Going from “HMNKSGVVLIRVTVDASGRVTSAAYEPKGSTTSDVELVAEARKAALRTRFTESRTVIEGGVITYIFKL” to “HMDGASVQRITELTATLNRYRHEYYNLAKPSVSDAVYDRLFDELAALEQKTGIVLSNSPTQTV”, the “soluble fraction (log2)” value falls from -0.0968 to -0.759.

First: HMAPKVTLNETETAIFEKMQQEKQLLLSELRTHFDISNKLWDTSIKTLTKNQLLTVSKEADLLWIKL
Second: HMIETIQVPRAFNDWHEQADKTKSVFEVYAEIEASENEKLIAWVRNNQNEFAKIWLGALIPELE
The “soluble fraction (log2)” value of the first is higher: -0.935 for the first, -1.24 for the second.

First: HMGRSARVQQAVHQAVRALLEENDGERSALSVPLVAERAGVNSSTIYRRWGDLPRLLAAVASN
Second: HMTVEMYIGKTANVLETVTENNGRIAIFGEEWQAKSLNGETIEKGAQAKIVKNDSIIMYVVPI
The “soluble fraction (log2)” value of the first is higher: 0.0284 for the first, -0.367 for the second.

Compared with “HMDEMPVEFVKISIKAGHPWENRKIKDLASLPDLLLVLILRGEERIIPNGNTVVLAGDKIVLSALSPE”, “HMRVTEIDYGAFMKMIEEKNIGEVKVEDYEIVFTDKDNKNIYKTGIMDDPDLTQRLYNSGAVFA” is higher in “soluble fraction (log2)” value: -1.94 for the first, -1.22 for the second.

“HMAPRDKADKYVAAGIAEELVPILQKVGYYLVTDLKDVKAQKIQQQIGEIIKKYKLDIEKPSVQDIEGWN” and “HMPDTETLTPRQRQILDLVQELGFTTIETLAERFGVSAQTVRREIIRLQAGNFLQRFHGGAGLASGGIRSA” are within 0.2 log units of each other in “soluble fraction (log2)” value: -0.259 for the first, -0.325 for the second.

Going from “HMTTPDIIVPDVKGMTVAEAQKALEEKGFKVKLEEMTQEGAVPGDVIRIDPVAGTKRKEGAKITLLIARG” to “HMLAVSVDKDGKVYIQDSETAVDAVTAKLRAISGNNSEIRIFVRGDADVNYGRIMEIMGVINAAGFRKVAL”, the “soluble fraction (log2)” value falls from -0.0525 to -0.78.

First: HMAKQQTTTTAHVVTTGETLYSIAQKNGISVEELKKSNNITSDKLRPGQTLHITKVSKTSSTAK
Second: HMEETGFYIKLQDQEVVIFHNDQVTPYEYTGIREEVLPESELEKLREGFFVEDEKELYSVLENLS
The “soluble fraction (log2)” value of the first is higher: 0.129 for the first, -0.412 for the second.

First: HMADKNIIGVLSAADNLGKVRITTANGEKYIITVPDGLSDIVKTYWEEEVSVKYVIEKRRKILVDIDG
Second: HMTNTDYPGKVVPVDPDGKTLKPDGDASYNDKPGTKVKTPTVPGYTAEVPNVEVPVGGGDIKVTYHKKPV
The “soluble fraction (log2)” value of the first is lower: -0.47 for the first, 0.0461 for the second.

First: HMQDVWEPFLAKGYVFADGMLTKLIHKRGDVYKTQEIGSDKIIYVIKDGDTFAHGKTVKAAMLDLAFKKS
Second: HMNAAFMKAERLLAILNILLTGKRVSSTELAKKLEVSVRTVYRDVEALSEAGFPVYATMGRDGGFGLIEGF
The “soluble fraction (log2)” value of the first is higher: -0.392 for the first, -1.58 for the second.

For “HMSYQADEIKEKLIDILQNQKTGLSGLEISERIGINRITMTKYLQVFAAEGFIKQKNIGNVIIWFIEDGTE”, the “soluble fraction (log2)” value was -0.8.
